Values belong to the molecule of their own block, whether it stands above or below them.
Assays:
[1] = target: IFNγ receptor (Homo sapiens) (UniProt P15260); details: cited from earlier work
[2] = target: T1, IFNγR1 extracellular domain (amino acids 26–254), recombinant (mouse, UniProt P15261 26-254); assay: SPR; Biacore T200, CM4 chip coated with anti-His5 onto which recombinant IFNγR1 was immobilised; IFNγ variants injected over 180 s at 0, 1, 2.5, 5, 10, 25 and 50 nM; details: both partners purified
T1 construct: mouse interferon-gamma receptor 1, extracellular domain, amino acids 26-254, cloned from mouse cDNA into pET26b-N-His6-SUMO; Immobilised on the chip through anti-His5; source: E. coli (T7 express, with pRARE plasmid), periplasmic expression, purified (osmotic shock, HisTrap, gel filtration); not shown: His6-SUMO, N-terminal, cleaved; His6, C-terminal, kept
T1 sequence (looked up): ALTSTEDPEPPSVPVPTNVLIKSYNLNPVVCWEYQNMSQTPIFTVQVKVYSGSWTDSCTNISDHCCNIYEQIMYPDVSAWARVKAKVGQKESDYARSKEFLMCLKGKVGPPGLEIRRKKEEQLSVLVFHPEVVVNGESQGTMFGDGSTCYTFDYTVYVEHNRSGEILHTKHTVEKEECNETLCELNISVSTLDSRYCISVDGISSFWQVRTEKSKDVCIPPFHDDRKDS

Chain of IFNγ receptor (Homo sapiens) (P15260 18-245): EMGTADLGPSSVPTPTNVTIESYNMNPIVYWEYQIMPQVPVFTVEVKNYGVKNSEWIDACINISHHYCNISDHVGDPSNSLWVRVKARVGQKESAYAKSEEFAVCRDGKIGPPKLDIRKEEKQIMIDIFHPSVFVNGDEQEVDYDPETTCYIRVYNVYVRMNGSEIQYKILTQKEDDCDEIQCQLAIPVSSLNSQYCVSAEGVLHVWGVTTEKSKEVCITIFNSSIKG

Molecule: IFNγ (from UniProt P01579)
Kd [1]: 500 pM

binding result [2]: binds
B1: Interferon-γ (IFNγ), recombinant (ligand, mouse, UniProt P01580 23-155, looked up)
chain: HGTVIESLESLNNYFNSSGIDVEEKSLFLDIWRNWQKDGDMKILQSQIISFYLRLFEVLKDNQAISNNISVIESHLITTFFSNSKAKKDAFMSIAKFEVNNPQVQRQAFNELIRVVHQLLPESSLRKRKRSRC
notes: mouse interferon-gamma, cDNA without the leader peptide, codon optimized, in pET28-N-His6-SUMO; also called IFNγ^wt; source: E. coli (T7 express, with pRARE plasmid), purified (HisTrap, size-exclusion chromatography); not shown: His6-SUMO, N-terminal, cleaved

binding result [2]: binds
B2: IFNγ–green fluorescent protein fusion protein (IFNγ–GFP), recombinant (ligand, mouse, UniProt P01580 23-155, looked up)
chain: B1 chain
notes: mouse interferon-gamma, cDNA without the leader peptide, with GFP fused to the C-terminus; source: E. coli (T7 express, with pRARE plasmid), purified (HisTrap, Superdex 200); not shown: His6-SUMO, N-terminal, cleaved; GFP, C-terminal, kept
